biological target: HLA-A*02:01 (Homo sapiens, UniProt P04439, D140Y/D185E/D98H/E176V/E277Q/G131W/G231S/I119V/I121R/I166T/I218V/L300P/L318F/N151K/N90K/P208A/P217A/Q86G/Q94H/R138H/R169H/T345S); assay: MHC binding assay: UV-ligand exchange with beta2m ELISA (exchange yield); settings: binding to HLA-A*02:01, β2m ELISA
Method in brief: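 Peptide–HLA-A*02:01 complexes formed by UV-induced exchange of a photocleavable ligand for the test peptide. Exchange products diluted 100-fold and captured on streptavidin-coated plates. Stabilized complexes detected with HRP anti-β2m (1 h, 37° C.) and TMB, A450; exchange yield reported.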

Substance	Peptide exchange (MHC class I binding score, peptide exchange yield)
135 (ALSEVDFQL; listed as Homo sapiens) [compound 135]	“+++” (≥50 = +++)
76 (ILIDSIYKV; listed as Homo sapiens) [compound 76]	“+++” (≥50 = +++)
70 (GLLDYPVGV; listed as Homo sapiens) [compound 70]	“+++” (≥50 = +++)
131 (FVPPVTVFPSL; listed as Homo sapiens) [compound 131]	“++” (≥20% = ++)
127 (KIGDEPPKV; listed as Homo sapiens) [compound 127]	“++” (≥20% = ++)
61 (FLQGYQLHL; listed as Homo sapiens) [compound 61]	“++++” (≥75% = ++++)
50 (SLSELEALM; listed as Homo sapiens) [compound 50]	“+++” (≥50 = +++)
262 (LLWGDLIWL; listed as Homo sapiens) [compound 262]	“+++” (≥50 = +++)
264 (SLQEQLHSV; listed as Homo sapiens) [compound 264]	“+++” (≥50 = +++)
218 (SALEELVNV; listed as Homo sapiens) [compound 218]	“++” (≥20% = ++)
148 (ALNPEIVSV; listed as Homo sapiens) [compound 148]	“++” (≥20% = ++)
96 (YIFTDNPAAV; listed as Homo sapiens) [compound 96]	“+++” (≥50 = +++)
88 (FLLVGDLMAV; listed as Homo sapiens) [compound 88]	“+++” (≥50 = +++)
221 (ALYEEGLLL; listed as Homo sapiens) [compound 221]	“++” (≥20% = ++)
158 (KLFDVDEDGYI; listed as Homo sapiens) [compound 158]	“+++” (≥50 = +++)
167 (KVLEVTEEFGV; listed as Homo sapiens) [compound 167]	“+++” (≥50 = +++)
244 (SLFGGTEITI; listed as Homo sapiens) [compound 244]	“+++” (≥50 = +++)
157 (SLNDEVPEV; listed as Homo sapiens) [compound 157]	“++” (≥20% = ++)
94 (YLIDIKTIAI; listed as Homo sapiens) [compound 94]	“++” (≥20% = ++)
62 (VLLDVSAGQLLM; listed as Homo sapiens) [compound 62]	“++++” (≥75% = ++++)
44 (ILDPISSGFLL; listed as Homo sapiens) [compound 44]	“++” (≥20% = ++)
63 (YLLPSGGSVTL; listed as Homo sapiens) [compound 63]	“++” (≥20% = ++)
255 (VLASYNLTV; listed as Homo sapiens) [compound 255]	“+++” (≥50 = +++)
117 (ILPDGEDFLAV; listed as Homo sapiens) [compound 117]	“+++” (≥50 = +++)
110 (FLSQVDFEL; listed as Homo sapiens) [compound 110]	“+++” (≥50 = +++)

The remaining lines, values ahead:

Peptide exchange (MHC class I binding score, peptide exchange yield)	Substance
“+++” (≥50 = +++)	512 (SLSEIVPCL; listed as Homo sapiens) [compound 512]
“+++” (≥50 = +++)	595 (VLLSIYPRV; listed as Homo sapiens) [compound 595]
“+++” (≥50 = +++)	298 (VMITKLVEV; listed as Homo sapiens) [compound 298]
“++” (≥20% = ++)	273 (NLFQSVREV; listed as Homo sapiens) [compound 273]
“+++” (≥50 = +++)	616 (VLIDEVESL; listed as Homo sapiens) [compound 616]
“+++” (≥50 = +++)	324 (FLYDEIEAEV; listed as Homo sapiens) [compound 324]
“+++” (≥50 = +++)	322 (TLMTSLPAL; listed as Homo sapiens) [compound 322]
“+++” (≥50 = +++)	452 (ILLEHGADPNL; listed as Homo sapiens) [compound 452]
“++” (≥20% = ++)	565 (ALQETPTSV; listed as Homo sapiens) [compound 565]
“+++” (≥50 = +++)	315 (YLQDVVEQA; listed as Homo sapiens) [compound 315]
“+++” (≥50 = +++)	401 (ILLDDTGLAYI; listed as Homo sapiens) [compound 401]
“+++” (≥50 = +++)	471 (YLYNNMIAKI; listed as Homo sapiens) [compound 471]
“++” (≥20% = ++)	579 (NLMEMVAQL; listed as Homo sapiens) [compound 579]
“++++” (≥75% = ++++)	568 (TLYDIAHTPGV; listed as Homo sapiens) [compound 568]
“++” (≥20% = ++)	434 (KVSNSGITRV; listed as Homo sapiens) [compound 434]
“+++” (≥50 = +++)	352 (SLLELLHIYV; listed as Homo sapiens) [compound 352]
“+++” (≥50 = +++)	433 (AMLNEPWAV; listed as Homo sapiens) [compound 433]
“++” (≥20% = ++)	355 (SIQQSIERLLV; listed as Homo sapiens) [compound 355]
“++” (≥20% = ++)	461 (VMFRTPLASV; listed as Homo sapiens) [compound 461]
“+++” (≥50 = +++)	610 (LLAPTPYIIGV; listed as Homo sapiens) [compound 610]
“++++” (≥75% = ++++)	576 (ILLNNSGQIKL; listed as Homo sapiens) [compound 576]
“+++” (≥50 = +++)	539 (ALFDAQAQV; listed as Homo sapiens) [compound 539]
“+++” (≥50 = +++)	296 (FMEGAIIYV; listed as Homo sapiens) [compound 296]
“+++” (≥50 = +++)	478 (YLLHEKLNL; listed as Homo sapiens) [compound 478]
“++++” (≥75% = ++++)	371 (FLQAHLHTA; listed as Homo sapiens) [compound 371]

From patent publication US10280205B2, “Method for treating cancer with an activated T lymphocyte that selectively recognizes a cancer cell consisting of specific peptide” (immatics biotechnologies GmbH, priority 2015, dated 2019)
